The source of these data is patent US20250382359A1 (BYOMASS, published 2025).

“And” between values parts separate entries of the source, which are not always exact repeats. Equal values may be shown once.

The target of test [1] is T1, Human GDF15 Fc (human, UniProt Q99988 195-308, limits assumed, biotinylated (EZ-Link Sulfo-NHS-Biotinylation Kit) in the SPR assay).
T1 construct: also called human GDF15-Fc fusion; biotinylated Human GDF15 Fc; not shown: Fc part
T1 sequence: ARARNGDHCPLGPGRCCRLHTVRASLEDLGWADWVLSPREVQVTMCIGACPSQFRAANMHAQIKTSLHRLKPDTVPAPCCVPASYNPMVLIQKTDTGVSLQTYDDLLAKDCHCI
The experiment in a line: SPR Biacore 8K; biotinylated antigen captured, Fab analyte. Here is the method:
Kinetic analysis was conducted at 25° C. in HBS-EP+running buffer (10 mM HEPES pH 7.4, 150 mM NaCl, 3 mM EDTA, 0.05% Surfactant P20) using a Biacore 8K optical biosensor (Cytiva, Marlborough, MA). The sample compartment was maintained at 10° C. for the duration of the experiment. The Biacore 8K can analyze up to 8 separate interactions in a single cycle.
Each experiment cycle began with an injection (300 s at 2 μL/min) overflow cells 1 and 2 of a 1:100 solution of biotin CAPture reagent (Cytiva) in running buffer. This was followed by an injection (45 s at 10.0 μL/min) of biotinylated human GDF15 (5 nM) overflow cell 2. […] The dissociation of the antibodies were monitored for 3420 s. Finally, an injection (120 s at 10 μL/min) of regeneration solution (6 M Guanidine-HCl in 0.25 M NaOH) overflow cells 1 and 2 prepared the sensor surface for another cycle. Several blank buffer samples were injected (300 s at 30 μL/min) overflow cells 1 and 2 throughout the duration of the experiment and used for reference surface subtraction—each were monitored for the same amount of dissociation time (3420 s) and regenerated under the same conditions as those for the Fab sample injections.
For orientation: SPR reads the build-up and loss of mass on a sensor chip optically.

Test [2] deals with T2, GDF15 (ligand used in the GFRAL/RET cell assays) (UniProt Q99988 197-308, limits assumed).
T2 sequence (looked up): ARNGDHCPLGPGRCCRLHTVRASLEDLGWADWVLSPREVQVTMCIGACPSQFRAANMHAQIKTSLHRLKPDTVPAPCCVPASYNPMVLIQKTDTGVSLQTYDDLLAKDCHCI
The test is described as follows: cell-based or functional assay.

In a further test the target is T3, Mouse GDF15 Fc (mouse, UniProt Q9Z0J7 189-303, limits assumed).
T3 construct: also called mouse GDF15-Fc fusion; not shown: Fc part
T3 sequence (looked up): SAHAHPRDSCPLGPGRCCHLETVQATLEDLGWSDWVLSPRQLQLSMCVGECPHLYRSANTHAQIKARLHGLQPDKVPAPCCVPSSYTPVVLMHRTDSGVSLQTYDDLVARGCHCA
The experiment in a line: BLI Octet; antigen on sensor, 100 nM Fab (monovalent). For orientation: Biolayer interferometry detects binding as a change in optical thickness at a sensor tip.

Another test has as its target T4, Cyno GDF15 Fc (cyno, UniProt G7PWZ3 193-308, limits assumed).
T4 construct: also called cyno GDF15-Fc fusion; not shown: Fc part
T4 sequence: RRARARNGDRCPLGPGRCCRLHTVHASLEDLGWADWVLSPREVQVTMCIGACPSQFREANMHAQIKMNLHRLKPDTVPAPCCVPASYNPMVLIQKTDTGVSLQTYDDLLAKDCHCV
Described as above.

Test [3] deals with T1, Human GDF15 Fc. Described as above.

B1: GDF15 antibody agent Clone E, Fab (Fab, V domains shown)
VH: QVQLVQSGAEVKKPGASVKVSCKASGYTFTSYGINWVRQAPGQGLEWMGWITAYSGDTNYAQKLQGRVTMTTDTSTSTAYMELRSLRSDDTAVYYCARGPGQYADVDVWGQGTMVTVSS
VL: DIQMTQSPSSVSASVGDRVTITCRASQGISSWLAWYQQKPGKAPKLLIYAASSLQSGVPSRFSGSGSGTDFTLTISSLQPEDFATYYCQQANSFPITFGGGTKVEIK
notes: Fab; CH1 and CL of the Fab not specified; also called Fab of Clone E
Broadly, the Kd is the concentration at which binding is half-saturated. Usually koff stands for the rate constant with which the complex falls apart. Usually kon stands for a measure of how fast the partners come together. B1: the Kd was 0.0331 nM with Human GDF15 Fc [1], 3.08 nM with Mouse GDF15 Fc, 0.413 nM with Cyno GDF15 Fc and 0.921 nM in the test with Human GDF15 Fc [3]. In the test with Human GDF15 Fc [1], this molecule came in with a koff of 8.71e-05 s⁻¹. In the test with Human GDF15 Fc [1], this molecule had a kon of 2.63e+06 M⁻¹ s⁻¹. For the same molecule, the “GDF15 GFRAL RET pERK Fab IC50 pM” value in test [2] was found to be 46.7 pM.

B2: GDF15 antibody agent Clone O, Fab (Fab, V domains shown)
VH: QVQLVQSGAEVKKPGATVKVSCKASGYTFDSLGMSWVRQAPGQGLEWMGYISTYSGDTVYAQKLQGRVTMTTDTSTSTAYMELRSLRSDDTAVYYCARESGQQVSALDPWGQGTLVTVSS
VL: DIQMTQSPSSVSASVGDRVTITCRASQGISRWLAWYQQKPGKAPKLLIYAASSLQSGVPSRFSGSGSGTDFTLTISSLQPEDFATYYCQQGASFPLTFGGGTKVEIK
notes: Fab; CH1 and CL of the Fab not specified; also called Fab of Clone O
As for B2, the Kd with Human GDF15 Fc [1] is 0.0341 nM; with Mouse GDF15 Fc, 1.6 nM; with Cyno GDF15 Fc, 0.077 nM; with Human GDF15 Fc [3] it was 0.016 nM. Moreover, the koff with Human GDF15 Fc [1] was 7.11e-05 s⁻¹. In the test with Human GDF15 Fc [1], this molecule came in with a kon of 2.08e+06 M⁻¹ s⁻¹.

B3: GDF15 antibody agent Clone T, Fab (Fab, V domains shown)
VH: QVQLVQSGAEVKKPGASVKVSCKASGYTFTSYGINWVRQAPGQGLEWMGWITAYSGDTNYAQKLQGRVTMTTDTSTSTAYMELRSLRSDDTAVYYCARGPGQYADVDVWGQGTMVTVSS
VL: DIQMTQSPSSVSASVGDRVTITCRASQGISSWLAWYQQKPGKAPKLLIYAASSLQSGVPSRFSGSGSGTDFTLTISSLQPEDFATYYCQQASQFPITFGGGTKVEIK
notes: Fab; CH1 and CL of the Fab not specified; also called Fab of Clone T
Take B3: the Kd with Human GDF15 Fc [1] stood at 0.0411 nM; with Mouse GDF15 Fc it was 1.92 nM; in the test with Cyno GDF15 Fc, 0.369 nM; with Human GDF15 Fc [3] it was 0.613 nM. This molecule yielded a dissociation rate constant (koff) with Human GDF15 Fc [1] of 4.52e-05 s⁻¹. In the test with Human GDF15 Fc [1], the kon was found to be 1.1e+06 M⁻¹ s⁻¹.

B4: GDF15 antibody agent Clone S, Fab (Fab, V domains shown)
VH: QVQLVQSGAEVKKPGASVKVSCKASGYTFTSYGINWVRQAPGQGLEWMGWITAYSGDTNYAQKLQGRVTMTTDTSTSTAYMELRSLRSDDTAVYYCARGPGQYADVDVWGQGTMVTVSS
VL: DIQLTQSPSSVSASVGDRVTITCRASQGISPWLAWYQQKPGKAPKLLIYAASSLQSGVPSRFSGSGSGTDFTLTISSLQPEDFATYYCQQANSFPITFGGGTKVEIK
notes: Fab; CH1 and CL of the Fab not specified; also called Fab of Clone S
As to B4, the Kd stood at 0.0369 nM with Human GDF15 Fc [1], 1.36 nM with Mouse GDF15 Fc, 0.252 nM in the test with Cyno GDF15 Fc and 0.48 nM in the test with Human GDF15 Fc [3]. Further, in the test with Human GDF15 Fc [1], the off-rate constant (koff) amounted to 4.93e-05 s⁻¹. In the test with Human GDF15 Fc [1], the kon came to 1.34e+06 M⁻¹ s⁻¹.

B5: GDF15 antibody agent Clone P, Fab (Fab, V domains shown)
VH: QVQLVQSGAEVKKPGATVKVSCKASGYTFDSYGIHWVRQAPGQGLEWMGWITAYSGDTVYAQKLQGRVTMTTDTSTSTAYMELRSLRSDDTAVYYCARESGQTSSALGPWGQGTLVTVSS
VL: DIQMTQSPSSVSASVGDRVTITCRASQGISRWLAWYQQKPGKAPKLLIYAASSLQSGVPSRFSGSGSGTDFTLTISSLQPEDFATYYCQQGASFPLTFGGGTKVEIK
notes: Fab; CH1 and CL of the Fab not specified; also called Fab of Clone P
Consider B5, for which, in the test with Human GDF15 Fc [1], the Kd is 0.126 nM, the koff worked out at 0.0021 s⁻¹ and the kon came out at 1.66e+07 M⁻¹ s⁻¹. Also, the “GDF15 GFRAL RET pERK Fab IC50 pM” value in test [2] is 701 pM and 1000 pM. In the test with Cyno GDF15 Fc, this molecule yielded a Kd of 1.72 nM. In the test with Human GDF15 Fc [3], this molecule displayed a Kd of 3.68 nM.

B6: GDF15 antibody agent Clone J, Fab (Fab, V domains shown)
VH: QVQLVQSGAEVKKPGASVKVSCKASGYTFTSYGINWVRQAPGQGLEWMGWIDAYSGSTNYAQKLQGRVTMTTDTSTSTAYMELRSLRSDDTAVYYCARGPGQYADVDVWGQGTMVTVSS
VL: DIQMTQSPSSVSASVGDRVTITCRASQGISSWLAWYQQKPGKAPKLLIYAASSLQSGVPSRFSGSGSGTDFTLTISSLQPEDFATYYCQQANSFPITFGGGTKVEIK
notes: Fab; CH1 and CL of the Fab not specified; also called Fab of Clone J
Turning to B6, in the test with Human GDF15 Fc [1], the Kd is 0.0884 nM, the koff was 0.000404 s⁻¹ and the kon stood at 4.57e+06 M⁻¹ s⁻¹. For the same molecule, the “GDF15 GFRAL RET pERK Fab IC50 pM” value in test [2] worked out at 75.1 pM. Further, the Kd with Cyno GDF15 Fc came out at 0.769 nM. Besides, the Kd with Human GDF15 Fc [3] came out at 1.28 nM.
